We go through 2 molecules from paper doi:10.1101/2023.06.23.546279 (bioRxiv, 2023).

One experiment deals with T1, Mft1 (S. cerevisiae, UniProt P33441 1-392).
T1 sequence: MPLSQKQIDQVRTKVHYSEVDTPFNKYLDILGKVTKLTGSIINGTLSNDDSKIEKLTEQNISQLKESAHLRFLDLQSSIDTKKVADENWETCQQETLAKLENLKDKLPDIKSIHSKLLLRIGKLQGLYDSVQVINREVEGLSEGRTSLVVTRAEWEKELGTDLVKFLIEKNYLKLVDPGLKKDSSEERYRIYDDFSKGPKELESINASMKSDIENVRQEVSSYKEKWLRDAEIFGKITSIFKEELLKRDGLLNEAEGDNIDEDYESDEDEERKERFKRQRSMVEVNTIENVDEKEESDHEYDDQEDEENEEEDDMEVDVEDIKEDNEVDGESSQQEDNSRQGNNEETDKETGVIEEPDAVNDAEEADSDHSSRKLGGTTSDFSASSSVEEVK
Nature of the experiment: cross-linking.

The next experiment concerns the target Tho2 (S. cerevisiae, UniProt P53552 1-1597). Kind of experiment: affinity purification with mass spectrometry.

Sequence of Tho2 (P53552 whole entry): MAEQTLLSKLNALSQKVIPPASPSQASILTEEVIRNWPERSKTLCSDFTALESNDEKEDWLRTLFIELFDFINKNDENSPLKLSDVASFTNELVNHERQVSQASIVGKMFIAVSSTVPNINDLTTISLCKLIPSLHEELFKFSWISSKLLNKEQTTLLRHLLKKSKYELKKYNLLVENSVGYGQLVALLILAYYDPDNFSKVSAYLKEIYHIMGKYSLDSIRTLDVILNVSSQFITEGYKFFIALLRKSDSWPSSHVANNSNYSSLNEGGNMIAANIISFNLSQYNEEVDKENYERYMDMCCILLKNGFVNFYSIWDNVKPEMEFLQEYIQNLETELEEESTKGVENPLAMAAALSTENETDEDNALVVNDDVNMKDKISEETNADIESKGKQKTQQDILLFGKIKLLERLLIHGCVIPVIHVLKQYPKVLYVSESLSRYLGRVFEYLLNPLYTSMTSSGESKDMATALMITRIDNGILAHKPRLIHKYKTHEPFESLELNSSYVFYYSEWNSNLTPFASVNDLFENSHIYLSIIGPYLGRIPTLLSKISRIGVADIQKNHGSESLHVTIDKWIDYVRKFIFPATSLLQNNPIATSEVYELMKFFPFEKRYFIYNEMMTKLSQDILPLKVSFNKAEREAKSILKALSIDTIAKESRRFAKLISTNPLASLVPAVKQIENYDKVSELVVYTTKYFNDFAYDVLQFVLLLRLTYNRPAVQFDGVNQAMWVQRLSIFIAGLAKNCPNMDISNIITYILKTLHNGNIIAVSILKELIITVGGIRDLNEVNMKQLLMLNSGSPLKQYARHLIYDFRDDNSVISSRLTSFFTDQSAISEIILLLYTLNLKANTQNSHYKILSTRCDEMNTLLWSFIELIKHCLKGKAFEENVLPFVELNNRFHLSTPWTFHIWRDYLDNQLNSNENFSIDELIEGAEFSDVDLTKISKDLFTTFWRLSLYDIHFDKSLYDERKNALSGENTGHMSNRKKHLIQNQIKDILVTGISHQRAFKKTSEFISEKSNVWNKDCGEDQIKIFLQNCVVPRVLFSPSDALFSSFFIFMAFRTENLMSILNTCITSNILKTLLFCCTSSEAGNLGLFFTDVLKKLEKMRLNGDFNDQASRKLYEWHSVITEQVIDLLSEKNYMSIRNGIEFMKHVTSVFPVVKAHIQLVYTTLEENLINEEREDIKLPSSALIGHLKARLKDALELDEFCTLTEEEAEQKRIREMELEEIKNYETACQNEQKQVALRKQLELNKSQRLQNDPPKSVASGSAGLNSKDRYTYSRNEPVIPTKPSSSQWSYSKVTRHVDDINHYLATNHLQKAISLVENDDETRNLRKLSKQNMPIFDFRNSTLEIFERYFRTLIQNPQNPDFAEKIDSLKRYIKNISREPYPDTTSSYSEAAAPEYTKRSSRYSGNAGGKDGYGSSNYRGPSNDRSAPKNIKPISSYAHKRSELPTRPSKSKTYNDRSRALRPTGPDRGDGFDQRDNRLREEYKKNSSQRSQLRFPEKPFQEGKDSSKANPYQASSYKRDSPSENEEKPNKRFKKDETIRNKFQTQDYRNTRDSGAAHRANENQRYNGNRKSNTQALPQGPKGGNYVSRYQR

B1: Thp2 (natural protein)
chain: MTKEEGRTYFESLCEEEQSLQESQTHLLNILDILSVLADPRSSDDLLTESLKKLPDLHRELINSSIRLRYDKYQTREAQLLEDTKTGRDVAAGVQNPKSISEYYSTFEHLNRDTLRYINLLKRLSVDLAKQVEVSDPSVTVYEMDKWVPSEKLQGILEQYCAPDTDIRGVDAQIKNYLDQIKMARAKFGLENKYSLKERLSTLTKELNHWRKEWDDIEMLMFGDDAHSMKKMIQKIDSLKSEINAPSESYPVDKEGDIVLE
For B1, the binding result in the experiment with Mft1 was “binds”.

B2: Hpr1 with a C-terminal FLAG-TEV-2xProtein-A (FTpA) tag (natural protein)
chain: MSNTEELIQNSIGFLQKTFKALPVSFDSIRHEPLPSSMLHASVLNFEWEPLEKNISAIHDRDSLIDIILKRFIIDSMTNAIEDEEENNLEKGLLNSCIGLDFVYNSRFNRSNPASWGNTFFELFSTIIDLLNSPSTFLKFWPYAESRIEWFKMNTSVEPVSLGESNLISYKQPLYEKLRHWNDILAKLENNDILNTVKHYNMKYKLENFLSELLPINEESNFNRSASISALQESDNEWNRSARERESNRSSDVIFAADYNFVFYHLIICPIEFAFSDLEYKNDVDRSLSPLLDAILEIEENFYSKIKMNNRTRYSLEEALNTEYYANYDVMTPKLPVYMKHSNAMKMDRNEFWANLQNIKESDDYTLRPTIMDISLSNTTCLYKQLTQEDDDYYRKQFILQLCFTTNLIRNLISSDETRNFYKSCYLRENPLSDIDFENLDEVNKKRGLNLCSYICDNRVLKFYKIKDPDFYRVIRKLMSSDEKFTTAKIDGFKEFQNFRISKEKIPPPAFDETFKKFTFIKMGNKLINNVWKIPTGLDKIEQEVKKPEGVYEAAQAKWESKISSETSGGEAKDEIIRQWQTLRFLRSRYLFDFDKVNEKTGVDGLFEEPRKVEALDDSFKEKLLYKINQEHRKKLQDAREYKIGKERKKRALEEEASFPEREQKIKSQRINSASQTEGDELKSEQTQPKGEISEENTKIKSSEVSSQDPDSGVAGEFAPQNTTAQLENPKTEDNNAATSNISNGSSTQDMK
As for B2, the binding result with Tho2 is given as “binds”.
